Key:
Experiment in all cases: fluorescence polarization
[1] = biological target: Egr1/Zif268 ZnF1-3 (Homo sapiens) (UniProt P18146); conditions: FP: 5 nM FAM-dsDNA, 300 mM NaCl (200 mM in Fig 4E), 20 mM Tris-HCl pH 7.5, 5% glycerol, 0.5 mM TCEP, 25 C, 10 min
[2] = system: WT1 ZnF2-4 (-KTS) (Homo sapiens), P19544-4; conditions: FP: 5 nM FAM-dsDNA, 300 mM NaCl (200 mM in Fig 4E), 20 mM Tris-HCl pH 7.5, 5% glycerol, 0.5 mM TCEP, 25 C, 10 min; for Kd: 300 mM NaCl
[3] = biological target: WT1 ZnF2-4 +KTS isoform (Homo sapiens) (UniProt P19544); conditions: FP: 5 nM FAM-dsDNA, 300 mM NaCl (200 mM in Fig 4E), 20 mM Tris-HCl pH 7.5, 5% glycerol, 0.5 mM TCEP, 25 C, 10 min
[4] = 5fC at C9 of strand 1, 5mC at C3 of strand 1 and C3, C9 of strand 2
[5] = 5hmC at C9 of strand 1, 5mC at C3 of strand 1 and C3, C9 of strand 2
[6] = 5hmC at C3 and C9 of strand 1, 5mC at C3 and C9 of strand 2
[7] = 5mC at C3 and C9 of strand 2 only
[8] = 5mC at C3 and C9 of both strands

Sequence of WT1 ZnF2-4 +KTS isoform (Homo sapiens) (P19544 350-440): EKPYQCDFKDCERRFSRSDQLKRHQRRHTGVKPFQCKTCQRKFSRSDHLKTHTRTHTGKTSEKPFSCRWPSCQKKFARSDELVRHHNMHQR
Sequence of WT1 ZnF2-4 (-KTS) (Homo sapiens), P19544-4 (P19544 other isoform, or with tags, fused parts or gaps): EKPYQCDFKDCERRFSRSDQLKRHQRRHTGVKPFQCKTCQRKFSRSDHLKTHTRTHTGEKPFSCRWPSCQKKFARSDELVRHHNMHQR

## AGCGTGGGCGT / TACGCCCACGC [5caCx1]
[1]; 5caC at C9 of strand 1, 5mC at C3 of strand 1 and C3, C9 of strand 2
  Kd: > 12000 nM
[2]; 2-fold stronger than 5mC, 5caC at C9 of strand 1, 5mC at C3 of strand 1 and C3, C9 of strand 2
  Kd: 50 nM

## AGCGTGGGCGT / TACGCCCACGC [5caCx2]
[2]; ~25-fold weaker than M/M, also printed as KD > 2.3 uM, 5caC at C3 and C9 of strand 1, 5mC at C3 and C9 of strand 2
  Kd: 2300 nM

## AGCGTGGGCGT / TACGCCCACGC [5fCx1]
[1]; [4]
  binding signal (fold weaker than 5mC (M/M)): 15
[2]; [4]
  binding signal (fold weaker than 5mC (M/M)): 14

## AGCGTGGGCGT / TACGCCCACGC [5fCx2]
[2]; 5fC at C3 and C9 of strand 1, 5mC at C3 and C9 of strand 2
  binding signal (fold weaker than M/M): 75

## AGCGTGGGCGT / TACGCCCACGC [5hmCx1]
[1]; [5]
  binding signal (fold weaker than 5mC (M/M)): 3.6
[2]; [5]
  binding signal (fold weaker than 5mC (M/M)): 4.5

## AGCGTGGGCGT / TACGCCCACGC [5hmCx2]
[1]; [6]
  binding signal (fold weaker than M/M): 24
[2]; [6]
  binding signal (fold weaker than M/M): 75

## AGCGTGGGCGT / TACGCCCACGC [C/C]
[1]; none
  binding signal (fold weaker than M/M): 2.8
[3]; none
  binding signal (fold weaker than -KTS isoform): 24
[2]; none
  binding signal (fold weaker than M/M): 1.8

## AGCGTGGGCGT / TACGCCCACGC [C/M]
[1]; [7]
  binding signal (fold weaker than M/M): 2
[3]; [7]
  binding signal (fold weaker than -KTS isoform): 24
[2]; [7]
  binding signal (fold weaker than M/M): 1.2

## AGCGTGGGCGT / TACGCCCACGC [M/M]
[1]; [8]
  binding signal (fold stronger than C/C): 2.8
[3]; 300 mM NaCl, 25-fold also printed (Fig 4C), 5mC at C3 and C9 of both strands
  binding signal (fold weaker than -KTS isoform): 24
[2]; [8]
  binding signal (fold stronger than C/C): 1.8

Source: article PMC4201290
